Experimental data: patent US6485936 (HSP RESEARCH INSTITUTE, dated 2002)

T1: GST-HSF2N96C328 (human, UniProt Q03933 96-328)
T1 construct: Expressed in E. coli and immobilized on glutathione-Sepharose; also called HSF2N96C328 (GST fusion); not shown: glutathione S-transferase (GST) encoded by the pGEX-5X-1 vector (Pharmacia)
T1 sequence (looked up): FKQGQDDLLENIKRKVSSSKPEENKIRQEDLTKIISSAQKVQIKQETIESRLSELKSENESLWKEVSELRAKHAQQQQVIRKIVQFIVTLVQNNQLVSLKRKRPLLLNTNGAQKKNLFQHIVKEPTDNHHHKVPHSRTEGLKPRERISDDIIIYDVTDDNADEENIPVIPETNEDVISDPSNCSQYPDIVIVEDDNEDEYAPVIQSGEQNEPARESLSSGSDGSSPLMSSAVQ

B1: BP-C150 (deletion mutant of HSF2BP), in vitro translated, 35S-methionine-labeled (other)
chain: MGEAGAAEEACRHMGTKEEFVKVRKKDLERLTTEVMQIRDFLPRILNGEVLESFQKLKIVEKNLERKEQELEQLKMDCEHFKARLETVQADNIREKKEKLALRQQLNEAKQQLLQQAEYCTEMGAAACTLLWGVSSSEEVVKAILGGDKA
modifications: 35S-methionine label
notes: Vector pcDNA 3.1 His; tag residues are not described
B2: BP-C115 (deletion mutant of HSF2BP), in vitro translated, 35S-methionine-labeled (other)
chain: MGEAGAAEEACRHMGTKEEFVKVRKKDLERLTTEVMQIRDFLPRILNGEVLESFQKLKIVEKNLERKEQELEQLKMDCEHFKARLETVQADNIREKKEKLALRQQLNEAKQQLLQ
modifications: 35S-methionine label
B3: BP-C73 (deletion mutant of HSF2BP), in vitro translated, 35S-methionine-labeled (other)
chain: MGEAGAAEEACRHMGTKEEFVKVRKKDLERLTTEVMQIRDFLPRILNGEVLESFQKLKIVEKNLERKEQELEQ
modifications: 35S-methionine label
B4: BP-N115 (deletion mutant of HSF2BP), in vitro translated, 35S-methionine-labeled (other)
chain: QQAEYCTEMGAAACTLLWGVSSSEEVVKAILGGDKALKFFSITGQTMESFVKSLDGDVQELDSDESQFVFALAGIVTNVAAIACGREFLVNSSRVLLDTILQLLGDLKPGQCTKLKVLMLMSLYNVSINLKGLKYISESPGFIPLLWWLLSDPDAEVCLHVLRLVQSVVLEPEVFSKSASEFRSSLPLQRILAMSKSRNPRLQTAAQELLEDLRTLEHNV
modifications: 35S-methionine label
B5: HSF2 binding protein (HSF2BP), in vitro translated, 35S-methionine-labeled (other)
chain: MGEAGAAEEACRHMGTKEEFVKVRKKDLERLTTEVMQIRDFLPRILNGEVLESFQKLKIVEKNLERKEQELEQLKMDCEHFKARLETVQADNIREKKEKLALRQQLNEAKQQLLQQAEYCTEMGAAACTLLWGVSSSEEVVKAILGGDKALKFFSITGQTMESFVKSLDGDVQELDSDESQFVFALAGIVTNVAAIACGREFLVNSSRVLLDTILQLLGDLKPGQCTKLKVLMLMSLYNVSINLKGLKYISESPGFIPLLWWLLSDPDAEVCLHVLRLVQSVVLEPEVFSKSASEFRSSLPLQRILAMSKSRNPRLQTAAQELLEDLRTLEHNV
modifications: 35S-methionine label
notes: In vitro translated (TNT kit) from HSF2BP cDNA in pcDNA 3.1 His A, B or C; also called human HSF2BP; intact HSF2BP

Experiments:
[1] = target: T1, GST-HSF2N96C328; assay: GST pull-down with GST-HSF2N96C328; 35S-labeled in vitro translated protein
[2] = target: T1, GST-HSF2N96C328; assay: GST pull-down, 35S-labeled in vitro translated deletion mutant

proportion bound (% of the level of input) [1]	binding result [2]	Binder
22.3 % of the level of input	–	B1
5.7 % of the level of input	–	B2
–	no binding	B3
–	no binding	B4
12.9 % of the level of input	–	B5
